Laboratory results taken from US20250382373A1, “ANTI-EGFR/MET ANTIBODIES AND USES THEREOF” (Biocytogen Pharmaceuticals (Beijing) Co., Ltd., priority 2022, published 2025).
Read-outs that look alike come from different tables or passages of the source.

Tests used:
[1] = biological target: monkey EGFR on CHO-S-fasEGFR cells (monkey (crab-eating macaque; Macaca fascicularis)) (UniProt P55245); experiment: flow cytometry on CHO-S-fasEGFR cells (evaluated as No binding)
[2] = biological target: monkey EGFR on CHO-S-fasEGFR cells (monkey (crab-eating macaque; Macaca fascicularis)) (UniProt P55245); experiment: as above; remark: listed apart in the source
[3] = biological target: human EGFR on CHO-S-hEGFR cells (human) (UniProt P00533); experiment: flow cytometry on CHO-S-hEGFR cells (evaluated as No binding)
[4] = biological target: human MET on SNU-5 cells (human) (UniProt P08581); experiment: flow cytometry on SNU-5 cells (evaluated as No binding)
Chain of human MET on SNU-5 cells (human) (P08581 25-1390): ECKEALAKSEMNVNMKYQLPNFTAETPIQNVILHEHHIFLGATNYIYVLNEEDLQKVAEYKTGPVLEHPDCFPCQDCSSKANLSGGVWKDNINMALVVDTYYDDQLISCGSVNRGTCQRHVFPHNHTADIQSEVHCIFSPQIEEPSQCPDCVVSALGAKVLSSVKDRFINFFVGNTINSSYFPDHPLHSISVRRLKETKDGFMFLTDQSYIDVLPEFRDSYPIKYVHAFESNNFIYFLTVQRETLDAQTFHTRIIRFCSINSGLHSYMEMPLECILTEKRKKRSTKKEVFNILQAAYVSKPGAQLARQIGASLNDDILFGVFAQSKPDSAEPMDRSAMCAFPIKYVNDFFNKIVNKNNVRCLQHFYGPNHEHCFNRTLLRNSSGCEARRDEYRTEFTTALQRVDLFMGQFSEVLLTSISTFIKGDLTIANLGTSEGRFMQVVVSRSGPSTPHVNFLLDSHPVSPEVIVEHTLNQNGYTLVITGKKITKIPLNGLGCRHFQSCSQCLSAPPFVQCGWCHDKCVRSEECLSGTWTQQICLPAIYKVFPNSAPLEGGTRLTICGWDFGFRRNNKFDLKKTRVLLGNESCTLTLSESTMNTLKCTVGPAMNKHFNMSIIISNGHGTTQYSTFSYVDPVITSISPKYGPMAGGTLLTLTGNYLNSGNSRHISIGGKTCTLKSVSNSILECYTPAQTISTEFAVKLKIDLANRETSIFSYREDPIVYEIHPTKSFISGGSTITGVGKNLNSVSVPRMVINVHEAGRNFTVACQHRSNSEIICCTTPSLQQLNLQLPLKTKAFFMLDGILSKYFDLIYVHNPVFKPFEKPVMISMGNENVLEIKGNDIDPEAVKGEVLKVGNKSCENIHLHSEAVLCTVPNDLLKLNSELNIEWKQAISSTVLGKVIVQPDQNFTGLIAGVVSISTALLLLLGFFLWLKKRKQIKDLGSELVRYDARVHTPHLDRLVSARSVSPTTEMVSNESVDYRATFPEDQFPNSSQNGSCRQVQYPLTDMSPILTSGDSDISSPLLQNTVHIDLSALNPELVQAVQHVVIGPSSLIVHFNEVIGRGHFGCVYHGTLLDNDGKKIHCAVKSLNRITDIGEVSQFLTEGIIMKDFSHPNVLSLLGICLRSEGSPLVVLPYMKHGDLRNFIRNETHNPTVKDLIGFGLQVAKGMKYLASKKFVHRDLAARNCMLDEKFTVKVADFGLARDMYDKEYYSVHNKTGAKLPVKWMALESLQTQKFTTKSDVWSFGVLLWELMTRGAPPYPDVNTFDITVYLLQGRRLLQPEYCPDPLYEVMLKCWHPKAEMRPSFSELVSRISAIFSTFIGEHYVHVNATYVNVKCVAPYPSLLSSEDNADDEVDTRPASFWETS

[5] = biological target: monkey MET on fasMET-NIH3T3 cells (monkey (Macaca fascicularis)); experiment: flow cytometry on fasMET-NIH3T3 cells (evaluated as No binding)
Chain of monkey MET on fasMET-NIH3T3 cells (monkey (Macaca fascicularis)) (chain, as listed by the source limits assumed): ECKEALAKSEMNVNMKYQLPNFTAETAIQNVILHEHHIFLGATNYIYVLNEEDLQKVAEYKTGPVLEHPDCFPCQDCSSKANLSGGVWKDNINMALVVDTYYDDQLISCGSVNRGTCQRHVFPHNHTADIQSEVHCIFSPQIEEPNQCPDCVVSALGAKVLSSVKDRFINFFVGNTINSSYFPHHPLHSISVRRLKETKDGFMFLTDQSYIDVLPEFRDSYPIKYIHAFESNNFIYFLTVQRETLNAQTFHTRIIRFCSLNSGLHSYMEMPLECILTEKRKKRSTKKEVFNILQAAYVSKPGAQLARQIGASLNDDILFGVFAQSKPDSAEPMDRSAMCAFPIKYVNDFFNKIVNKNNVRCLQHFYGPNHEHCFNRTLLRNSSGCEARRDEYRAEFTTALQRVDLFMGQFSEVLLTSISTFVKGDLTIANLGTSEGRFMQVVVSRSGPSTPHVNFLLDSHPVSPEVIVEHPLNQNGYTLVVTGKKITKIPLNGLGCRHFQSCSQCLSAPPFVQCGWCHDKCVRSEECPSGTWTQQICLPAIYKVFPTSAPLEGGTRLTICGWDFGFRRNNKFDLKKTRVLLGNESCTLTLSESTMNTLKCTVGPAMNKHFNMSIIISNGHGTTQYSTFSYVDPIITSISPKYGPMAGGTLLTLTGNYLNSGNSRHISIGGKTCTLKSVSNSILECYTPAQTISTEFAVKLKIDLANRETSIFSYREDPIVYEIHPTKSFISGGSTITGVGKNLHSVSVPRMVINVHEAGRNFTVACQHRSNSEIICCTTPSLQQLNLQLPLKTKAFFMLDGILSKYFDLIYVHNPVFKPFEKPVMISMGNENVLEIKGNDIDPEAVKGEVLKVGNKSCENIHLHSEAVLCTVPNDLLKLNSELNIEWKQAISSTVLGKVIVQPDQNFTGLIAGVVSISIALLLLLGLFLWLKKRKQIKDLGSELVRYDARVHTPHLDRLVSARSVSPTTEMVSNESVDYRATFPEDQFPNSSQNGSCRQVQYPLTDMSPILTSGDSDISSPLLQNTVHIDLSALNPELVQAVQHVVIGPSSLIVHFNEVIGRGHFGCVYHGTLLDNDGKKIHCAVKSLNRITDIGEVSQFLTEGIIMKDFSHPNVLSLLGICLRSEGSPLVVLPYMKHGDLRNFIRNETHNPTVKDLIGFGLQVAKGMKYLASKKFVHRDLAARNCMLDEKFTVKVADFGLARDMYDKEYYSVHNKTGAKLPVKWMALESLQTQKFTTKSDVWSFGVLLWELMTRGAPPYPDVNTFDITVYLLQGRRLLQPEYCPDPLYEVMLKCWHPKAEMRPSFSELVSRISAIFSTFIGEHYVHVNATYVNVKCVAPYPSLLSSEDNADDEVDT

[6] = biological target: monkey MET on fasMET-NIH3T3 cells (monkey (Macaca fascicularis)); experiment: as above; remark: listed apart in the source
[7] = biological target: dog MET on dMET-NIH3T3 cells (dog (Canis lupus, printed 'Cans lupus')) (UniProt Q75ZY9); experiment: flow cytometry on dMET-NIH3T3 cells (evaluated as No binding)
[8] = biological target: human MET on hMET-NIH3T3 cells (human) (UniProt P08581); experiment: flow cytometry on hMET-NIH3T3 cells (evaluated as No binding)
Chain of human MET on hMET-NIH3T3 cells (human) (P08581 25-1390 limits assumed): as the sequence (P08581 25-1390) above

[9] = biological target: His-tagged monkey MET (monkey); experiment: SPR (Biacore 8K), Protein A chip

Percentage of Positive Cells [1]	Percentage of Positive Cells [2]	Percentage of Positive Cells [3]	Percentage of Positive Cells [4]	Percentage of Positive Cells [5]	Percentage of Positive Cells [6]	Percentage of Positive Cells [7]	Percentage of Positive Cells [8]	Kd [9]	koff [9]	kon [9]	Substance
0.2%	0.65%	0%	2.5%	0.8%	1.29%	0.29%	1.01%				NC
								1.5 nM	9.41e-05 s⁻¹	62600 M⁻¹ s⁻¹	Telisotuzumab analog (antibody)
